Laboratory results: patent EP4748860A1 (Kanglitai Biomedical (Qingdao) Co., Ltd., dated 2026)

B1: HER2-11-hFc (Fc fusion)
chain: QVQLQESGGGLVQAGGSLRLSCAASGHTVSRNMMGWFRQAPGKEREFVSAIAWNGEDTYYAESVEGRFTISKDNVKNTIYLQMNSLKPEDTAVYYCAASLFRLWNSATAGNNRVYHYWGQGTQVTVSS
notes: VHH gene cloned into pABG1-Fc (human Fc fragment), expressed in FreeStyle 293-F cells, Protein A purified; also called HER2-11-Fc; not shown: human Fc fragment of vector pABG1-Fc
B2: HER2-10-hFc (Fc fusion)
chain: QVQLQESGGGLVQPGGSLRLSCTAARNIFGRNVMGWFRQAPGKQREFVAHITGGSAVIYATSVKGRFTISRDNAKNTVYLQMNNLTLDDTAVYFCRAVNDDLWGQGTQVTVSS
notes: VHH gene cloned into pABG1-Fc (human Fc fragment), expressed in FreeStyle 293-F cells, Protein A purified; also called HER2-10-Fc; not shown: human Fc fragment of vector pABG1-Fc
B3: HER2-8-hFc (Fc fusion)
chain: QVQLQESGGGLVQAGGSLRLSCAASGRTFSGAGVGWFRQDPEKEREFVAAIAWSGGSTRYADSVKGRFTISRDNTENTVFLQMNNLRPEDTAVYYCAATRRFYSGLTYTQRDVYDNWGQGTQVTVSS
notes: VHH gene cloned into pABG1-Fc (human Fc fragment), expressed in FreeStyle 293-F cells, Protein A purified; also called HER2-8-Fc; not shown: human Fc fragment of vector pABG1-Fc
B4: HER2-3-hFc (Fc fusion)
chain: QVQLQESGGGLVQAGDSLRLSCAASGLTFSTVGMGWFRQVLGMEREPVAGISWTGNVIGYAESVTGRFTISRDSAKNTVYLQMNSLKPEDTAVYYCAARRRGMSSYDYWGQGTQVTVSS
notes: VHH gene cloned into pABG1-Fc (human Fc fragment), expressed in FreeStyle 293-F cells, Protein A purified; also called HER2-3-Fc; not shown: human Fc fragment of vector pABG1-Fc

Target: BSA (UniProt P02769 25-607)
Sequence (P02769 25-607 limits assumed): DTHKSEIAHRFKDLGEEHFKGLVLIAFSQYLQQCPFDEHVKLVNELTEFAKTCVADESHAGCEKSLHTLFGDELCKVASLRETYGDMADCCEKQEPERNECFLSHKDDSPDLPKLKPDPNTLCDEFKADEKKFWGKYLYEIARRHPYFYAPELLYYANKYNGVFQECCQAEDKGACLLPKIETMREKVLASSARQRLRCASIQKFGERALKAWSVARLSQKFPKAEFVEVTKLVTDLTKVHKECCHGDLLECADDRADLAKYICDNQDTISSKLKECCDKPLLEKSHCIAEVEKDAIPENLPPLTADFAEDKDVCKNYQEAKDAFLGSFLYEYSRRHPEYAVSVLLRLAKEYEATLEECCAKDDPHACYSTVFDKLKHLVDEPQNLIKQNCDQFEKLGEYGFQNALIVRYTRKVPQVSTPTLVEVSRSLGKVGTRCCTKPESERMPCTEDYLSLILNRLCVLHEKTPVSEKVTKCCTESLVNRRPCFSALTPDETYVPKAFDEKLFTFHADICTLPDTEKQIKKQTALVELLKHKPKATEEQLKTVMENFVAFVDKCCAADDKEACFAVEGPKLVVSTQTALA
Test: ELISA, antigen coated at 200 ng per well

Binding result, no binding (tested: 0.2 µg per well):
B1
B2
B3
B4
